Experiments:
Assay in all cases: cell-based or functional assay
DAPK2(h) (human) = DAPK2(h) (human) (UniProt Q9UIK4)
SGK3(h) (human) = molecular target: T1, SGK3(h) (human) (UniProt Q96BR1)
T1 sequence (looked up): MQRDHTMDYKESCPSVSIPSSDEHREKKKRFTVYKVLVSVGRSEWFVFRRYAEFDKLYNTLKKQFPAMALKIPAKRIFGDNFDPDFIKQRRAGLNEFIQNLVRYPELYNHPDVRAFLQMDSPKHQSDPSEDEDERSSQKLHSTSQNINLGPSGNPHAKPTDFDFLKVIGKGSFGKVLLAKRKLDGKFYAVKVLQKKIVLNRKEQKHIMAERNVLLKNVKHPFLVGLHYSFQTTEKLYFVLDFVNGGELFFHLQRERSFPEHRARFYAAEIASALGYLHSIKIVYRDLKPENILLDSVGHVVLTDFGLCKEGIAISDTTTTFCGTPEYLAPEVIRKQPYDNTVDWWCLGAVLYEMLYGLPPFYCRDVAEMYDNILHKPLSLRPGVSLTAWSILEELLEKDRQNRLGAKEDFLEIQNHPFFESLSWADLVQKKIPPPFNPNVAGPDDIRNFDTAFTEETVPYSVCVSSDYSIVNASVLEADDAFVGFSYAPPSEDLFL

Met(M1268T)(h) (human) = Met(M1268T)(h) (human) (UniProt P08581)
MKK6(h) (human) = MKK6(h) (human) (UniProt P52564)
MLK1(h) (human) = MLK1(h) (human) (UniProt P80192)
CaMKI(h) (human) = CaMKI(h) (human) (UniProt Q14012)
GSK3α(h) (human) = GSK3α(h) (human) (UniProt P49840)
PKBα(h) (human) = PKBα(h) (human) (UniProt P31749)
ErbB4(h) (human) = ErbB4(h) (human) (UniProt Q15303)
PKCµ(h) (human) = molecular target: T2, PKCµ(h) (human) (UniProt Q15139)
T2 sequence (looked up): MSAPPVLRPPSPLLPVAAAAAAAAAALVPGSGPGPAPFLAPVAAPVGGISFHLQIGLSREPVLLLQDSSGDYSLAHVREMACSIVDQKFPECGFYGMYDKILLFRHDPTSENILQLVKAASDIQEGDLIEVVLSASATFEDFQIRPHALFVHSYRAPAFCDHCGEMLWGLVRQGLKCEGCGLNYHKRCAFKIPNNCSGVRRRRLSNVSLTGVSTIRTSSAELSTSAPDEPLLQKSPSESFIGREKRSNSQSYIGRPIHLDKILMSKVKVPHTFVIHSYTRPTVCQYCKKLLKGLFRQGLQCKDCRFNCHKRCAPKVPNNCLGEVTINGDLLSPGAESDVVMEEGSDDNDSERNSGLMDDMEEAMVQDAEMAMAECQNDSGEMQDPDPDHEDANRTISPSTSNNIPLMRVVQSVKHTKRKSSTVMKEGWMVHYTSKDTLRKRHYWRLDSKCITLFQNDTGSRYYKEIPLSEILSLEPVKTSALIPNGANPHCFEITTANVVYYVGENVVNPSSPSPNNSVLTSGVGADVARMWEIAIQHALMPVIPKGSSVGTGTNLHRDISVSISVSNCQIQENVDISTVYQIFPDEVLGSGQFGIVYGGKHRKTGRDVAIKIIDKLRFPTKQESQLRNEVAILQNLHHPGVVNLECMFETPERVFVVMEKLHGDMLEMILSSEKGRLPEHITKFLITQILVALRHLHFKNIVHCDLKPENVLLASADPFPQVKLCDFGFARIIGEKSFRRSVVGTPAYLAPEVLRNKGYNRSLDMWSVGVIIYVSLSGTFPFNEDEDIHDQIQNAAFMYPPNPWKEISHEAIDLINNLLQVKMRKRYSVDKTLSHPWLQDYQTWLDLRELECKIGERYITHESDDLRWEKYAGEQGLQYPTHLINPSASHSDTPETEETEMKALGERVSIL

Abl(h) (human) = Abl(h) (human) (UniProt P00519)
CDK2/cyclinA(h) (human) = CDK2/cyclinA(h) (human) (UniProt P24941)
Aurora-B(h) (human) = Aurora-B(h) (human) (UniProt Q96GD4)
Pim-1(h) (human) = Pim-1(h) (human) (UniProt P11309)
STK33(h) (human) = STK33(h) (human) (UniProt Q9BYT3)
CHK2(R145W)(h) (human) = CHK2(R145W)(h) (human) (UniProt O96017)
ASK1(h) (human) = ASK1(h) (human) (UniProt Q99683)
Itk(h) (human) = molecular target: T3, Itk(h) (human) (UniProt Q08881)
T3 sequence (looked up): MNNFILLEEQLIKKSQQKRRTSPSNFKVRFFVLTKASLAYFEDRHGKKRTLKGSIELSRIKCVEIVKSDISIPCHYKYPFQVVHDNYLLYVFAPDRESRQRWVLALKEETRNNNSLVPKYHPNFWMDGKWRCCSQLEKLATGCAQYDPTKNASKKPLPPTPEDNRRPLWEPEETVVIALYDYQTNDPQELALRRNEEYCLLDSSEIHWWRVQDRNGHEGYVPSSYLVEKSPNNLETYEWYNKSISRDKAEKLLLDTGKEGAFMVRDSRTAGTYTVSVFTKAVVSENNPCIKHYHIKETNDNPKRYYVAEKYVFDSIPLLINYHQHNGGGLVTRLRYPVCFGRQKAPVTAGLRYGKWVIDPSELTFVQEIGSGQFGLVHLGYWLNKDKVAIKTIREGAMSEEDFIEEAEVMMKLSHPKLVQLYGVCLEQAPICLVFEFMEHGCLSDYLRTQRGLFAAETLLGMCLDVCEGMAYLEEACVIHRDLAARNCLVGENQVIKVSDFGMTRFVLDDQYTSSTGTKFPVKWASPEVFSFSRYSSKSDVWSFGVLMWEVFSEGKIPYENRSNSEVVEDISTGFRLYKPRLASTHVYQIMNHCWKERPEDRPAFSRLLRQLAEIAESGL

Fes(h) (human) = Fes(h) (human) (UniProt P07332)
MLCK(h) (human) = molecular target: MLCK(h) (human)
MRCKβ(h) (human) = MRCKβ(h) (human) (UniProt Q9Y5S2)
ROCK-II(h) (human) = ROCK-II(h) (human) (UniProt O75116)

Sequence of CHK2(R145W)(h) (human) (O96017 5-543 R145W limits assumed): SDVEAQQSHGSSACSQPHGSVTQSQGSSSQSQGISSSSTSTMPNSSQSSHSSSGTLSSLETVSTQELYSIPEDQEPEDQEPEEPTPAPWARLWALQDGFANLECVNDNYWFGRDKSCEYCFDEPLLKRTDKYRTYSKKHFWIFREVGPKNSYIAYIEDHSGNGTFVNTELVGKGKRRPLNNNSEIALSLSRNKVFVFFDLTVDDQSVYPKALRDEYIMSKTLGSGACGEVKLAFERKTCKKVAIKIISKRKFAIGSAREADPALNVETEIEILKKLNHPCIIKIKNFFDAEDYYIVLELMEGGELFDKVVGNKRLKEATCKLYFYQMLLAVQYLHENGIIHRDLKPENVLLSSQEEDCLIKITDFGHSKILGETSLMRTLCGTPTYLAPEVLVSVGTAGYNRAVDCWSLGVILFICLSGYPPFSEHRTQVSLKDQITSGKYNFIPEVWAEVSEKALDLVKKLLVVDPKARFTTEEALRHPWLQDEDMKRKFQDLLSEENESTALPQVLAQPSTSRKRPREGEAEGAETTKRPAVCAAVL
Sequence of PKBα(h) (human) (P31749 whole entry): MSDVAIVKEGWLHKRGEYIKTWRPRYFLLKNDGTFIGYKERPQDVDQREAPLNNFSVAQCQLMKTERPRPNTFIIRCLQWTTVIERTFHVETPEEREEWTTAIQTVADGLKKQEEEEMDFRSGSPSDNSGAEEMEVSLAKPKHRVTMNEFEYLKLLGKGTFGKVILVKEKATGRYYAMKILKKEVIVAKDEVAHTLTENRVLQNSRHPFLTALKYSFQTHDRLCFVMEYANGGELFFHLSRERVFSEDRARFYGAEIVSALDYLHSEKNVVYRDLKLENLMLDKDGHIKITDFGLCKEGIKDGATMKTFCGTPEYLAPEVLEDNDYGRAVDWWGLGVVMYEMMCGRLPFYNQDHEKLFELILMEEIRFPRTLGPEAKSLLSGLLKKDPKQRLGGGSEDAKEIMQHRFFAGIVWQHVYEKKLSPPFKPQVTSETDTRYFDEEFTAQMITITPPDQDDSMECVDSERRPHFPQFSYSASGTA
Sequence of Aurora-B(h) (human) (Q96GD4 whole entry): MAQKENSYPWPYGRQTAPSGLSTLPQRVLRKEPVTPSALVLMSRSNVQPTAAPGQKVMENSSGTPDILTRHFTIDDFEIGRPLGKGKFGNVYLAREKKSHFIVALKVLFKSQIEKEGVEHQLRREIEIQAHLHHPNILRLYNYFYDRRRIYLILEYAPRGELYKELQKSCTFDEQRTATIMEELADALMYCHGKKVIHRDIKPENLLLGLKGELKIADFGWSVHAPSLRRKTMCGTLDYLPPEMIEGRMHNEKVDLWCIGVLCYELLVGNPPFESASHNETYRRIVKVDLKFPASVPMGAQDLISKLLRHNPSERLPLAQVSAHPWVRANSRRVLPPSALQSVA
Sequence of ErbB4(h) (human) (Q15303 706-991 limits assumed): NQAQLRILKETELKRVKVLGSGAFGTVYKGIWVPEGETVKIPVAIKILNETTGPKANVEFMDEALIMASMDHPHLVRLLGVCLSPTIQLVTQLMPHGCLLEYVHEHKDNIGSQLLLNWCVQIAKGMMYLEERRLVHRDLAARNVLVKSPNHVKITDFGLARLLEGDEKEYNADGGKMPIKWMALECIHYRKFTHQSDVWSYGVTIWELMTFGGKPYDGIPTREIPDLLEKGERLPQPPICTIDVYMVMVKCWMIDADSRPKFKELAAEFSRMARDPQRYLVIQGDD
Sequence of Abl(h) (human) (P00519 27-1130 limits assumed): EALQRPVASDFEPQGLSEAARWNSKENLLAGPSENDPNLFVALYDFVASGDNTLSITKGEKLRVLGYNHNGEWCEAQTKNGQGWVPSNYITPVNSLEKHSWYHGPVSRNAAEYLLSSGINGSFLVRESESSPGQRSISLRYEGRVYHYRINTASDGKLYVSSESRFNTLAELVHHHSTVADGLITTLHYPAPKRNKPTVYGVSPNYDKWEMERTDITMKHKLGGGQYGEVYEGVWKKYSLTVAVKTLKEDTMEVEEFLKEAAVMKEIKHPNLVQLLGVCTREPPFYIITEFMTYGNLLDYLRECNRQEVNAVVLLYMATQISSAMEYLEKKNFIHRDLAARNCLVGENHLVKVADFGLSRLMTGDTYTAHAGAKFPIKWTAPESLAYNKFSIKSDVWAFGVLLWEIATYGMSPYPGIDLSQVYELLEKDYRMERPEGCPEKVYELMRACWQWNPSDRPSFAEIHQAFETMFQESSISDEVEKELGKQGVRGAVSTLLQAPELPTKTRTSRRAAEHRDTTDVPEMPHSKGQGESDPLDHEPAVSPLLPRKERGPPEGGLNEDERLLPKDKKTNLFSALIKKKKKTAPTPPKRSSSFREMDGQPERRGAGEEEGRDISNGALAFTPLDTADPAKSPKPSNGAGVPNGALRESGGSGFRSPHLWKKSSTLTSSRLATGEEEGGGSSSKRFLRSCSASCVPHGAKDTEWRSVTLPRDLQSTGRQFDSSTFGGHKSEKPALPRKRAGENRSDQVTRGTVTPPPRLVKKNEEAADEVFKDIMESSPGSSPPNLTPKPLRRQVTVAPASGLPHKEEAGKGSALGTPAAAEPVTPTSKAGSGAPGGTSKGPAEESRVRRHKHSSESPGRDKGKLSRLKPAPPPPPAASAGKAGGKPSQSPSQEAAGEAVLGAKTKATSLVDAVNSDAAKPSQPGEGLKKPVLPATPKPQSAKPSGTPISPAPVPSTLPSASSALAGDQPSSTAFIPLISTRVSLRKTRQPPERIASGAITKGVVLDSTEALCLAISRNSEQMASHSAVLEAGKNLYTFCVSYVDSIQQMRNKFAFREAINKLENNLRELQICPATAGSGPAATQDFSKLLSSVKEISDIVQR
Sequence of MRCKβ(h) (human) (Q9Y5S2 1-473 limits assumed): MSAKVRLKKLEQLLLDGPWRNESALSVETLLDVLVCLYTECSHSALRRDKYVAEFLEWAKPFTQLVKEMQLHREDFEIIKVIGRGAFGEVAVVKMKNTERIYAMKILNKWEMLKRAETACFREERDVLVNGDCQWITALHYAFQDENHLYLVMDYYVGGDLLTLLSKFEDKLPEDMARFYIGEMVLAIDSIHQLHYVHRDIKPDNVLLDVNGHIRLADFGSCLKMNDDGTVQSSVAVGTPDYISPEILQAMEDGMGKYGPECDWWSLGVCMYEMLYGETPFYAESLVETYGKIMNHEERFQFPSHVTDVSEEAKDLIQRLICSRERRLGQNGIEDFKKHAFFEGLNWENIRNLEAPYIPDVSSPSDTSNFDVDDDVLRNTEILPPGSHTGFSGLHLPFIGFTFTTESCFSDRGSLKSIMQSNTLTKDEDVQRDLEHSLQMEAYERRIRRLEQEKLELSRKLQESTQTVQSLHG

% activity at 100 µM (DAPK2(h) (human))	% activity at 100 µM (SGK3(h) (human))	% activity at 100 µM (Met(M1268T)(h) (human))	% activity at 100 µM (MKK6(h) (human))	% activity at 100 µM (MLK1(h) (human))	% activity at 100 µM (CaMKI(h) (human))	% activity at 100 µM (GSK3α(h) (human))	% activity at 100 µM (PKBα(h) (human))	% activity at 100 µM (ErbB4(h) (human))	% activity at 100 µM (PKCµ(h) (human))	% activity at 100 µM (Abl(h) (human))	% activity at 100 µM (CDK2/cyclinA(h) (human))	% activity at 100 µM (Aurora-B(h) (human))	% activity at 100 µM (Pim-1(h) (human))	% activity at 100 µM (STK33(h) (human))	% activity at 100 µM (CHK2(R145W)(h) (human))	% activity at 100 µM (ASK1(h) (human))	% activity at 100 µM (Itk(h) (human))	% activity at 100 µM (Fes(h) (human))	% activity at 100 µM (MLCK(h) (human))	Substance	other results
16%	8%	265%	44%	33%	0%	164%	67%	0%	14%	84%	92%	150%	7%	52%	31%	69%	63%	16%	1%	MMI-0400 (peptide)	% activity at 100 µM (MRCKβ(h) (human)): 71%; % activity at 100 µM (ROCK-II(h) (human)): 77%
3%	-3%	239%	18%	43%	-1%	175%	30%	2%	10%	16%	87%	5%	0%	16%	3%	-4%	7%	23%	0%	MMI-0500 (peptide)	% activity at 100 µM (MRCKβ(h) (human)): -10%; % activity at 100 µM (ROCK-II(h) (human)): 2%
32%	10%	255%	48%	40%	1%	157%	57%	40%	22%	69%	86%	128%	8%	45%	33%	80%	77%	20%	2%	MMI-0300 (peptide)	% activity at 100 µM (MRCKβ(h) (human)): 83%; % activity at 100 µM (ROCK-II(h) (human)): 74%

— patent US20150064134A1
